Measurements from the nanobody polyreactivity screen of Harvey et al. (2022).

experiment: yeast display, Sf9 membrane polyspecificity reagent, FACS + sequencing; frameworks hold sequencing errors
Outline: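 A nanobody's polyreactivity label depends on the gate it was sorted from. Yeast display cells were stained with 10% biotinylated, detergent-solubilized Sf9 membrane reagent for 1 hour at 4 °C, enriched on streptavidin microbeads and sorted by FACS. The low and high (top ~1%) gates were set on anti-HA fluorescence for expression and streptavidin fluorescence for reagent binding.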

Sequence | polyreactivity (PSR sort gate)
QVQLVESGGGLVQAGGSLRLSFAASGRTFDRYDMGWYRQAPGKERELVATISSSGGSTYYADSVKGRFTISRDNAKNTVYLQMNSLKPEDTAVYYCAADPSGDYWGQGTQVTVSS | low polyreactivity
QVQLVESGGGLVQAGGSLRLSFAASGSIFVKYAMGWYRQAPGKERELVAAITTGVGSTYYADSLKGRFTISRDNAKNTVYLQMNSLKPEDTAVYYCAVRPPRVRTVFYGGNYWGQGTQVTVSS | low polyreactivity
QVQLVESGGGLVQAGGSLRLSFAASGSIFYYYAMGWYRQAPGKERELVAAINYSGGSTYADSVKGRFTISLDNAKNTVYLQMNSLKPEDTAVYYCATRLYGYWPYGFEYWGQGTQVTVSS | low polyreactivity
QVQLVESGGGLVQAGGSLRLSFAASGSIINAYAMGWYRQAPGKERELVAAINSGGTTYYADSVKGRFTISRDNAKNTVYLQLNSLKPEDTAVYYCAKTRSYGRSGVSRRDGFYYWGQGTQVTVSS | high polyreactivity
QVQLVESGGGLVQAGGSLRLSFAASGSTFRRYDMGWYRQAPGKERELVADISDRGSRTYYADSVKGRFTISRDNAKKTVYFQMNSLEPEYTAVYYCAAEAVGNTSPGDYWGQGTQVTVSS | high polyreactivity
QVQLVESGGGLVQAGGSLRLSFAPSGRIVPNAMGWYRQAPGKDREMVAAISRSGGSTYYADSVKGRFTISRDNAKNTVYLQMNSLKPEDTAVYYCAKRSTSQSLQGEYWGQGTQVTVSS | high polyreactivity
QVQLVESGGGLVQAGGSLRLSFDASGSIFSFYAMGGYSQAPGKERELVAAIRWSGGRTYYADSVKGRFTISRDPAKNTVYLQMNSLKPEDTAVYYCAADKYLDYDYWGQGTQVTVSS | high polyreactivity
QVQLVESGGGLVQAGGSLRLSFSASGSTFTSNAMGWYRQAPGKERELVASISGSGGRTYYADSVKGRFTISRDNAKNTVYLQMNSLKPEDTAVYYCNAESRNLYSTQFDYWGQGTQVTVSS | low polyreactivity
QVQLVESGGGLVQAGGSLRLSGAAKGSTFRQYAMGWYRQATGKERELVAAISSGGRTNYPDSVKGRFTISRDNAKNTVYFHMNSQKPVDTAVYYSAARFYFQFRRFRRMDYWGQGTQVTVSS | high polyreactivity
QVQLVESGGGLVQAGGSLRLSGAASGRIFYSNAMGWYRQAHGKERELVAAITRAGSTNYADSVKGSFTISRDIAKNTVYLQMNSLKPDDTAVYDCAATYGCSVFEYDYWGQGTQVTVSS | low polyreactivity
QVQLVESGGGLVQAGGSLRLSGAASGRNFSTNAMGWYRPAPGKERELVAAITSGGNTYADSVKGRFTISRDNAKNTVYLQMNSLKPEDTAVYYCAARLYWGRYNYWGQGTQVTVSS | high polyreactivity
QVQLVESGGGLVQAGGSLRLSGAASGRTFVSYTMGWYRQAPGKERQLVAAISDDGDSTYYADSVKGRFTISRDYAKNTVYLQMNSLKPEDTAVYYCAAGEYQYFWFPFDYWGQGTQVTVSS | low polyreactivity
QVQLVESGGGLVQAGGSLRLSGAASGRTLYCYAMGWSRQAPGKEREFVAAMSRSGGSTYYADSVKGRFTISRDNAKNTVYLQMNRLKPEETAVYYCADDRSFLQIYKAGPQYRSNYWGQGTQVTVSS | high polyreactivity
QVQLVESGGGLVQAGGSLRLSGAASGSIFRDNGMGWYRPAPGKERELVAAINSGDSTYYADSVKGRFTISRDNAKNTVYLQLNSLKPEDTAVYYCNADDRRALSQRQYDWYDYWGQGTQVTVSS | low polyreactivity
QVQLVESGGGLVQAGGSLRLSGAASGSTFIINAMGWSSQAPGKELELVAAISGRGTRTYYADSVKGRFTISRDNAKNTVYLQMNSLNPEDTAVYSCAALDTAGPYNTLDIYDHWGQGTQVTVSS | high polyreactivity
QVQLVESGGGLVQAGGSLRLSGAASGYIFLGNAMGWYRQAPGKERELVAAISRSGGSTYYADSVKGRFTISRDNAKNTVYFHMNSLKPEYTAVYYCAADLPNPKWYGYDYWGQGTQVNVSS | high polyreactivity
QVQLVESGGGLVQAGGSLRLSGDASGSTFIYNAMGWYRQAPGKERELVAAIDWSGGDTYYADSVKGRFTISRDKAKNTVYLLMNSLKPEDTAVYYCAAVKRGGFYWGQGTQVTVSS | high polyreactivity
QVQLVESGGGLVQAGGSLRLSRAASGFTLAYYAMGWYRQAPGKERELVAAITADTGTTYYADSVKGRFTISRDNAKNTVYLQMNSLKPEDTAVYYCATRDVFYDDDYWGQGTQVTVSS | high polyreactivity
QVQLVESGGGLVQAGGSLRLSRAASGRSYVYAMGWYRQAPGTETEVVAAISTISSSTYYADSVKGRFTISRDNAKNTVYLQMNSLKPEDTAVYYCAADYSQYYYYGWIDSDYWGQGTQVTVSS | high polyreactivity
QVQLVESGGGLVQAGGSLRLSRAASGSTFSGYTMGWYRQAPGKERELVAAISTSGGRTSYADSVKGRFTISRDNAKTSVYLQMNSLKPEDTAVYYCAARRWERRVRPGYYPYDYWGQGTQVTVSS | high polyreactivity
QVQLVESGGGLVQAGGSLRLSSAAAGRLLSRDAMGWYRQAPGKERELVATLSSGGGTYYADSVKGRFTISRDNSKNTVYLQMNSLKRVDTAVYYCAVQAWYGRYYYWGQGTQVTVSS | high polyreactivity
QVQLVESGGGLVQAGGSLRLSSAACGTIFVLNAMGWYRPAPGKERELVAAITNVGSTYYADSVKGRFTISRDNAKNTFYLQMNSLKPEDTAVYYCNADPGEVLVGYDYWGQGTQVTVSS | low polyreactivity

Sequence | polyreactivity (PSR sort gate)
QVQLVESGGGLVQAGGSLRLSSAASGFIFNTNAMGWYRQAPGKERELVAAISGGGSTYYAVSVKGRFTLSRDNAKQTVYLQMNSLKPDDTAVYYCAAVPFYRYDYWGQGTQVTVSS | low polyreactivity
QVQLVESGGGLVQAGGSLRLSSAASGFTFGSYAMGWYRQAPGKERELVAAIRASGGRTYYADSVKGRFTISRDNAKNTVYLQMNSLKPEDTAVYYCAAQLPMGKRYYYWGQGTQVTVSS | high polyreactivity
QVQLVESGGGLVQAGGSLRLSSAASGFTFNANAMGWYRQAPGKERELVAVITRSGGRTYYADSVKGRFTISRDNAKNTVYLQMNSLKPEDTAVYYCAADIGYTYEYYYWGQGTQVTVSS | high polyreactivity
QVQLVESGGGLVQAGGSLRLSSAASGFTFPWYAMGWYSQAPGKEREVVAVISSSGGSTYYADSVKGRFTISRDNAKNTVYLQMNSLKPEDTAVYYCARAYGGRGYDIRYDYWGKGTQVTVSS | high polyreactivity
QVQLVESGGGLVQAGGSLRLSSAASGFTFSHYAMGWYRQAPGKERELVAAITWSGGSTYYADSVKGRFTISRDNAKNTVYLQINSLKPEDTAVYYCAAESYLDGGEYWGQGTQVTVSS | high polyreactivity
QVQLVESGGGLVQAGGSLRLSSAASGFTFVINDMGWYRQAPGKEMELVADITSGGDTYYADSVKGRFTISRDNAKNTVYLQMNSLKPEDTAVYYCAADIYPDWIYLLYGYWGQGTQGTVSS | low polyreactivity
QVQLVESGGGLVQAGGSLRLSSAASGFTFVNYAMGWYRQAPGKERELVAAITRGGSTYYADSVKGRFTISRDNAKNTVYLNMNSLIPEDTAVYYCSARYFYLFRPTEYYYWGQGTQVTVSS | high polyreactivity
QVQLVESGGGLVQAGGSLRLSSAASGFTFVRYTMGWYRQAPGKERELVAAINASGDRTYYADSVKGRFTISRDNAKNTVYLQMNCLIPEDTAVFYCAAGSSLYYSHMGYWGQGTQVTVSS | high polyreactivity
QVQLVESGGGLVQAGGSLRLSSAASGFTFVRYTMGWYRQAPGKERELVAVIRRGGSTYYADSVKGRFTISRDNAKNTVYLQMNSLKPEDTAVYYCNALSALAVEDGYWGLGTQVTVSS | low polyreactivity
QVQLVESGGGLVQAGGSLRLSSAASGFTLGYYAMGWYRQAPGKEREMVAAIRSSGTRTYYADSVKGRFTISRDNAKYTVYLLMNSLKPEDTAVYYCAARTPSYEMDYWGQGTQVTVSS | high polyreactivity
QVQLVESGGGLVQAGGSLRLSSAASGFTLSRYAMGWYRQAPGKERELVASITSGGSTNYADSVKGRFTISRDNAKNTVYLQMNSLKPEDTAVYYCAARYPYRSYKLSHSYARPYGYWGQGTQVTVSS | high polyreactivity
QVQLVESGGGLVQAGGSLRLSSAASGFTYYFYAMGWYRQAPGKERELVAGISTSGTSTYYADSVKGRFTISRDNAKNTVYFQMNRLKPEDTAVSYCAKRGDAIVPTSSKGNYWGQGTQVTVSS | low polyreactivity
QVQLVESGGGLVQAGGSLRLSSAASGIFSYYAIGWYRQAPGKERELVAAISSSGGSTYYADSVKGRFTISRDNAKNTVYLQMNSLKPEDTAVYYCAVSGGTSRRYYYWGLGTQVTVSS | high polyreactivity
QVQLVESGGGLVQAGGSLRLSSAASGIFWNYAMGWYRQAPGKERELVAAISGSGGSTYYADSVKGRFTISRDNAKNTVYLQINSLKPEDTAVYYCAAEPGNHIWIYDYWGQGTQVTVSS | low polyreactivity
QVQLVESGGGLVQAGGSLRLSSAASGIIFRDNAMGWYRQAPGKERELVAAIDSSGGTTYADSVKGRFTISRDNAKNTVYLQMNSLKPEDTAVYYCATEVYWTVSYYGYDYYGGNYYYWGQGTQVTVSS | low polyreactivity
QVQLVESGGGLVQAGGSLRLSSAASGITFRRYAMVWYRQAPGKERELVASITRGGSTSYADSVKGRFTISRDNAKNTVYLQMNSLKPEDTAVYYCNTRFGYQFDYYYWGQGTQVTVSS | high polyreactivity
QVQLVESGGGLVQAGGSLRLSSAASGITFYINAMGWYRPAPGKERELVAALSWPRGSTYYADSVKGRFTISRDNAKNTVYLQMNSLKPEDTAVYYCAGVAYFELSGGGLEYGYDYWGQGTQVSVSS | high polyreactivity
QVQLVESGGGLVQAGGSLRLSSAASGITFYWYAMGWYRQAPGKERELVAASTRSVGSTYYADSVNGRFTISRDNAKNTVYLQMNSLKPEDTAVYYCAADFYYYGFDYWGQGTQVTVSS | low polyreactivity
QVQLVESGGGLVQAGGSLRLSSAASGITLKRYALGWYRHAPGKERELVAAITGRGGGTNYADSVKGRFTISRDNAKNTVYLQMNSLKPEDTAVYYCAARYLQGRYDYWGQGTQVTVSS | high polyreactivity
QVQLVESGGGLVQAGGSLRLSSAASGLTFNYYAMGWYRQAPGKERELVAAISKSGGRTYYADSVKGRFTISRDNAKNTVYLQMNSLKPEDTAVYYCNDVVPRSRYFSWTYDYWGQGTQVTVSS | high polyreactivity
QVQLVESGGGLVQAGGSLRLSSAASGLTYSVYAMGWYRQAPGKERELVAAISGSGGSTYYADSVKGRFTISRDNAKNTVYLQMNSLKPEDTAVYYCAARYDVHYDGMDYWGLGTQVTVSS | low polyreactivity
